Assay [1] deals with T1, DSL-EGF6.
T1 construct: also called Human DLL3 DSL-EGF6, N-terminal HA tag, on CHO cells
T1 single chain: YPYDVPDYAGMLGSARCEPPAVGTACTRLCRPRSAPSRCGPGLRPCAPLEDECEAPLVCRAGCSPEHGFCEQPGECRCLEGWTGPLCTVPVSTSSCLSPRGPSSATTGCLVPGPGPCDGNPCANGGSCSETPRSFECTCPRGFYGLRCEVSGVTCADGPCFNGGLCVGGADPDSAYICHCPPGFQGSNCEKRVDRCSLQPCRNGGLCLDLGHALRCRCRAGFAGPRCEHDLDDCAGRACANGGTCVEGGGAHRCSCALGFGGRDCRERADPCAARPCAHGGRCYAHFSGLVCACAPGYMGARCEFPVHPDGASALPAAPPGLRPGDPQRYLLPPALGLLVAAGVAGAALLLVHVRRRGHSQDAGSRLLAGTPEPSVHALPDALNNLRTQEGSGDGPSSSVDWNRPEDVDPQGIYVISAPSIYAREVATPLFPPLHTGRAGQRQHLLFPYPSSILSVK
The assay is described as follows: flow cytometry on CHO cells with the HA tagged DLL3 construct, PE anti-mouse IgG. In general terms: Flow cytometry measures light scatter and fluorescence of single cells or particles in a stream.
Method: (§1) The samples were analyzed by flow cytometry. […] Signals from the PE channel are shown on the x-axis and counts are shown on the y-axis.

Assay [2] concerns the target T2, EGF6.
T2 construct: also called Human DLL3 EGF6, N-terminal HA tag, on CHO cells
T2 single chain: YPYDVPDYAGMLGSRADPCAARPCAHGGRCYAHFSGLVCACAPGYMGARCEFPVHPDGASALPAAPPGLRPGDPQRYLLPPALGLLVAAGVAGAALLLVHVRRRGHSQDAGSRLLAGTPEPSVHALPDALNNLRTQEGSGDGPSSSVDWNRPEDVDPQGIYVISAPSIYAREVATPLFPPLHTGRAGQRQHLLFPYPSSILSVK
The assay is described as above.
Method: as §1

The target of assay [3] is T3, EGF5-EGF6.
T3 construct: also called Human DLL3 EGF5-EGF6, N-terminal HA tag, on CHO cells
T3 single chain: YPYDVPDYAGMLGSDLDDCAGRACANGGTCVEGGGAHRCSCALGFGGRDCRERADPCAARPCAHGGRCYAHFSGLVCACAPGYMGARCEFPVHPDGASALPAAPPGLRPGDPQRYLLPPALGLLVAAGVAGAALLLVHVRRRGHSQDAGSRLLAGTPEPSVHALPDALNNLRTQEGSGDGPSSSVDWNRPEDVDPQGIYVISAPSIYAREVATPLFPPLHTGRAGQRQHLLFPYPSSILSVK
The assay is described as above.
Method: as §1

Assay [4] has as its target T4, EGF4-EGF6.
T4 construct: also called Human DLL3 EGF4-EGF6, N-terminal HA tag, on CHO cells
T4 single chain: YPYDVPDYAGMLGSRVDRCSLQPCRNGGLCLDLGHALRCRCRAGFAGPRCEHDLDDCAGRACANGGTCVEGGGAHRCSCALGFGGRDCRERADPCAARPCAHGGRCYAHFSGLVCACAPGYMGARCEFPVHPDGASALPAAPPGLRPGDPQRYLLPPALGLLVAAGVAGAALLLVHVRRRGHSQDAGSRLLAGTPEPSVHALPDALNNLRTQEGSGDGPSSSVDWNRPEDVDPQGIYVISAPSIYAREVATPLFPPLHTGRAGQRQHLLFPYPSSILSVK
The description is as above.
Method: as §1

In assay [5] the target is T5, EGF3-EGF6.
T5 construct: also called Human DLL3 EGF3-EGF6, N-terminal HA tag, on CHO cells
T5 single chain: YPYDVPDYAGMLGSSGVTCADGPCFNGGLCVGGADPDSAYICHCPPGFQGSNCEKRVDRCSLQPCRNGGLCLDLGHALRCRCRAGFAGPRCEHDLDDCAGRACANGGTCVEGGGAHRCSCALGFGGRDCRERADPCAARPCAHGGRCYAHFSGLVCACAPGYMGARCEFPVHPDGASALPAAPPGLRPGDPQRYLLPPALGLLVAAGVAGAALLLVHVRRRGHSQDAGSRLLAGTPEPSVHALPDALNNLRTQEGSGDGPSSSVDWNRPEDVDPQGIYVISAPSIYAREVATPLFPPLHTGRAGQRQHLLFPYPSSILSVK
The assay is described as above.
Method: as §1

In assay [6] the target is T6, EGF1-EGF6.
T6 construct: also called Human DLL3 EGF1-EGF6, N-terminal HA tag, on CHO cells
T6 single chain: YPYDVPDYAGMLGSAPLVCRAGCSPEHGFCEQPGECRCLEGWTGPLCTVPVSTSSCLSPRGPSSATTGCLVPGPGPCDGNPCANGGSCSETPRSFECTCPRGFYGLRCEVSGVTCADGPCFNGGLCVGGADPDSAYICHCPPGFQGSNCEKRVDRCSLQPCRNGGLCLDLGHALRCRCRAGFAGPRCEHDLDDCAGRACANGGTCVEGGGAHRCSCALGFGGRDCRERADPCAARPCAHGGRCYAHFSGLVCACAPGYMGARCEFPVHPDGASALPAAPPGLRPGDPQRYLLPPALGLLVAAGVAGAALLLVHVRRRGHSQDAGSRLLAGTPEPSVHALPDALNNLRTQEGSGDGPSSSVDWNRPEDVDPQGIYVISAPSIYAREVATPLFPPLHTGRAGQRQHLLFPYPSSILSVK
Described as above.
Method: as §1

Assay [7] addresses T7, EGF2-EGF6.
T7 construct: also called Human DLL3 EGF2-EGF6, N-terminal HA tag, on CHO cells
T7 single chain: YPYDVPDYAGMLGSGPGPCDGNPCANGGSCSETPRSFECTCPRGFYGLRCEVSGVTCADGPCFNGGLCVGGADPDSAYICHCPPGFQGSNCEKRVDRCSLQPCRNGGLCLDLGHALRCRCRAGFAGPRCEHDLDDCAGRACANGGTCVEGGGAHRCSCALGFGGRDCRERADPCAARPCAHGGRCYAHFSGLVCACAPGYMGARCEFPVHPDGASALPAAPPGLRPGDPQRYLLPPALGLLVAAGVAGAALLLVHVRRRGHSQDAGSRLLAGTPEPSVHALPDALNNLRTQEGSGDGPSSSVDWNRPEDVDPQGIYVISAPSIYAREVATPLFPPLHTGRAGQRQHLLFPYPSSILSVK
Described as above.
Method: as §1

The target in assay [8] is T8, human DLL3 extracellular domain (ECD) with C-terminal 8xHis tag and Avi tag (human, UniProt Q9NYJ7 27-492).
T8 construct: extracellular domain; Expressed in Expi293, purified by IMAC and SEC; also called huDLL3; not shown: Avi tag
T8 sequence: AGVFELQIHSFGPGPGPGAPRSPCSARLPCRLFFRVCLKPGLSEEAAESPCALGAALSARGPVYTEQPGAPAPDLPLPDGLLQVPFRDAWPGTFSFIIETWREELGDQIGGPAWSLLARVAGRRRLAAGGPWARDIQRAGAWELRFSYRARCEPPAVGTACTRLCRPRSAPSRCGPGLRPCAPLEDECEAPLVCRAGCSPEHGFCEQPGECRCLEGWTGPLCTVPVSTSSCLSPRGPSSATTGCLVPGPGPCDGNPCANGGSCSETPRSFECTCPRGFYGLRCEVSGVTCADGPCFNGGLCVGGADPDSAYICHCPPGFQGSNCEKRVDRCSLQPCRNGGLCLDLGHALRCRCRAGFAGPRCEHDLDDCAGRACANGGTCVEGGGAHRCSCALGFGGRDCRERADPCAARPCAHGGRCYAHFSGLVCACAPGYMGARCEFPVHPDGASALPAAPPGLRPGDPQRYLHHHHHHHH
The assay is described as follows: SPR (Biacore), 37 C; IgG captured on chip, human DLL3 ECD in solution; 1:1 Langmuir fit. (Surface plasmon resonance follows binding to a sensor surface in real time, without labels.)

B1: anti-DLL3 antibody 5E12 (IgG) (antibody, V domains shown)
VH: EVQLVESGGGLVQPGGSLRLSCAASGFTFSSYDMHWVRQATGKGLEWVSAIGPAGDTYYPGSVKGRFTISRENAKNSLYLQMNSLRAGDTAVYYCARADPPYYYYGMDVWGQGTTVTVSS
VL: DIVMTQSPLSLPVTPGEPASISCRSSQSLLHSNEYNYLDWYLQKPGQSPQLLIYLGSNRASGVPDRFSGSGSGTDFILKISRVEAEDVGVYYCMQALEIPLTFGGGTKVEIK
notes: Full-length monoclonal antibody (IgG)
In general, Kd refers to the concentration at which binding is half-saturated. A higher Kd goes with lower affinity. Take B1: the binding result in assay [1] was “binds”; in assay [2], “no binding”; in assay [3], “no binding”; in assay [4] it was “no binding”; in assay [5], “no binding”; in assay [6], “no binding”. The binding result in assay [7] is recorded as “no binding”. Moreover, in assay [8], the Kd worked out at 7.76 nM.

B2: anti-DLL3 antibody 26C8 (IgG) (antibody, V domains shown)
VH: QVQLQESGPGLVKPSETLSLTCTVSDNSISNYYWSWIRQPPGKGLEWIAYIYYSGTTNYNPSLKSRVTISLDTSKNQFSLQLSSVTAADAAVYYCARVFHWGFAFDIWGQGTMVTVSS
VL: EIVLTQSPGTLSLSPGERATLSCRASQRVSNTYLAWYQQNPGQAPRLLIYGASSRATGIPDRFSGSGSGTDFTLTISRLEPEDFAVYYCQQYGTSPLTFGGGTKVEIK
notes: as for B1
In the case of B2, the binding result is “binds” in assay [1]; “no binding” in assay [2]; “no binding” in assay [3]; “no binding” in assay [4]; “binds” in assay [5]; “binds” in assay [6]. Further, the binding result in assay [7] was “binds”. The affinity in assay [8], expressed as Kd, was 5.54 nM.

B3: anti-DLL3 antibody 6D8 (IgG) (antibody, V domains shown)
VH: QITLKESGPTLVKPTQTLTLTCTFSGFSLSTRGVGVGWIRQPPGKALEWLALIYWNDDKRYSPSLQTRLTITKDTPKNQVVLTMTNMDPVDTATYYCARSNWGNWYFALWGRGTLVTVSS
VL: EIVLTQSPATLSLSPGERATLSCRASQSVSSYLAWYQQKPGQAPRLLIYDAFYRATGIPARFSGSGSGTDFTLTISSLEPEDFAVYYCQHRSNWPITFGQGTRLEIK
notes: as for B1
With B3, the binding result in assay [1] is listed as “binds”; in assay [2], “no binding”; in assay [3], “no binding”; in assay [4], “no binding”; in assay [5], “no binding”; in assay [6] it was “binds”. The binding result in assay [7] is “no binding”. Further, the Kd in assay [8] is less than 1.42 nM.

Values taken from patent US20230287120A1 (ALLOGENE THERAPEUTICS, published 2023).
